# Data taken from IntAct's records for PubMed 29039417.
# B1: BBSome complex member BBS4 (Homo sapiens), Q96RK4 (parent)
# chain: MAEERVATRTQFPVSTESQKPRQKKAPEFPILEKQNWLIHLHYIRKDYEACKAVIKEQLQETQGLCEYAIYVQALIFRLEGNIQESLELFQTCAVLSPQSADNLKQVARSLFLLGKHKAAIEVYNEAAKLNQKDWEISHNLGVCYIYLKQFNKAQDQLHNALNLNRHDLTYIMLGKIHLLEGDLDKAIEVYKKAVEFSPENTELLTTLGLLYLQLGIYQKAFEHLGNALTYDPTNYKAILAAGSMMQTHGDFDVALTKYRVVACAVPESPPLWNNIGMCFFGKKKYVAAISCLKRANYLAPFDWKILYNLGLVHLTMQQYASAFHFLSAAINFQPKMGELYMLLAVALTNLEDIENAKRAYAEAVHLDKCNPLVNLNYAVLLYNQGEKKNALAQYQEMEKKVSLLKDNSSLEFDSEMVEMAQKLGAALQVGEALVWTKPVKDPKSKHQTTSTSKPASFQQPLGSNQALGQAMSSAAAYRTLPSGAGGTSQFTKPPSLPLEPEPAVESSPTETSEQIREK
# partner: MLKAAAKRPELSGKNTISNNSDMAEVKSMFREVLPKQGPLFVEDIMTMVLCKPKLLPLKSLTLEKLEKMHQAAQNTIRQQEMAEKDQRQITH
# Variants of: B1
# Conditions: with bbip1_human BBIP1, A8MTZ0
row,Variant,effect of a mutation on the interaction
1,S508E,with no effect
2,S508K,with no effect
3,S508A,with no effect
4,R517K,with no effect
5,R517E,with no effect
6,R517A,with no effect
7,S507K,with no effect
8,S507E,with no effect
9,S507A,with no effect
10,I516A,with no effect
11,I516K,with no effect
12,I516E,with no effect
13,T512K,with no effect
14,T512E,with no effect
15,T512A,with no effect
16,S513E,with no effect
17,S513A,with no effect
18,S513K,with no effect
19,Q515K,with no effect
20,Q515A,with no effect

row,Variant,effect of a mutation on the interaction
1,Q515E,with no effect
2,E514A,with no effect
3,E514K,with no effect
4,E518K,with no effect
5,E518A,with no effect
6,E506K,with no effect
7,E506A,with no effect
8,E511A,with no effect
9,E511K,with no effect
10,T510E,with no effect
11,T510A,with no effect
12,T510K,with no effect
13,V505A,with no effect
14,V505E,with no effect
15,V505K,with no effect
16,K519E,with no effect
17,K519A,with no effect
18,P509E,with no effect
19,P509A,with no effect
20,P509K,with no effect
